According to the DeepSol protein solubility set:

assay: soluble on expression in E. coli; label from the status in PepcDB or PDB records

| Sequence | soluble on expression in E. coli |
| --- | --- |
| MKLSVLDQSPIAYGSNAKEALRQTTELAKVTEALGYHRFWVSEHHDASTLAGSSPEVLIAHLAAHTKKIRLGSGGVMLPHYSAYKVAENFKLLEALHPGRIDVGLGRAPGGMPIAKMALQEGKEQNIHKYPLQVKDVIGYLQDDLPTDHRFHGLKATPLIDTVPDVWLLGSSGGSANVAAENGTGFAFAHFINGEGGVQAVESYRETFQPSALFDRPQTSVAIFVICADTDEQADQIASSLDLSLIMLENGQLSKGTPSIESALSYPYSPFERARIRENRKRMIVGSPKAVRQQLVELARAYETEEVIVVTITHRFEDRIRSYELLGEEWNVN | not soluble |
| MKLNVDGLLVYFPYDYIYPEQFSYMRELKRTLDAKGHGVLEMPSGTGKTVSLLALIMAYQRAYPLEVTKLIYCSRTVPEIEKVIEELRKLLNFYEKQEGEKLPFLGLALSSRKNLCIHPEVTPLRFGKDVDGKCHSLTASYVRAQYQHDTSLPHCRFYEEFDAHGREVPLPAGIYNLDDLKALGRRQGWCPYFLARYSILHANVVVYSYHYLLDPKIADLVSKELARKAVVVFDEAHNIDNVCIDSMSVNLTRRTLDRCQGNLETLQKTVLRIKETDEQRLRDEYRRLVEGLREASAARETDAHLANPVLPDEVLQEAVPGSIRTAEHFLGFLRRLLEYVKWRLRVQHVVQESPPAFLSGLAQRVCIQRKPLRFCAERLRSLLHTLEITDLADFSPLTLLANFATLVSTYAKGFTIIIEPFDDRTPTIANPILHFSCMDASLAIKPVFERFQSVIITSGTLSPLDIYPKILDFHPVTMATFTMTLARVCLCPMIIGRGNDQVAISSKFETREDIAVIRNYGNLLLEMSAVVPDGIVAFFTSYQYMESTVASWYEQGILENIQRNKLLFIETQDGAETSVALEKYQEACENGRGAILLSVARGKVSEGIDFVHHYGRAVIMFGVPYVYTQSRILKARLEYLRDQFQIRENDFLTFDAMRHAAQCVGRAIRGKTDYGLMVFADKRFARGDKRGKLPRWIQEHLTDANLNLTVDEGVQVAKYFLRQMAQPFHREDQLGLSLLSLEQLESEETLKRIEQIAQQL | not soluble |
| MGSDKIHHHHHHMNRRRIALLLPRLGRYGGVEQFAWHLAEALAQRGHEVDFICARKEGEAPAGVRPVVVGRKGGLKVLKALHYLVQAERMRRRGDYDLTVSFGKTWEQDILRVGGGPLSTFWQLSGEAWPKGPRRTLKCLTRHLSPYNWLTHIIERRQYDGHCKIICVSDAVRGWTLQAFPSLAATPPEVIYNRPQLERFTPAPDTGRAACRERFSIPAGHVAIGTASSNFILKGVGHLIHALSLLPPHFMLLVAGGRNPGPFMDVARKLGVSDRVRFLGRVDDMPAFYNAIDVFALNTFYDACSNAVLEALACGTPALSTTRNGSSRFLPEAWVTDAPDDPADLAARLAALASEERTEGFAWPEDVKAGIPAWVERIEREMESGIRRG | not soluble |
| MSRHWPLFDLRITTPRLQLQLPTEELCDQLIDTILEGVHDPDRMPFSVPWTRASREDLPFNTLSHLWQQLAGFKRDDWSLPLAVLVDGRAVGVQALSSKDFPITRQVDSGSWLGLRYQGHGYGTEMRAAVLYFAFAELEAQVATSRSFVDNPASIAVSRRNGYRDNGLDRVAREGAMAEALLFRLTRDDWQRHRTVEVRVDGFDRCRPLFGPLEPPRY | soluble |
| MSLTIPGVVIIGGAHGTLALARSLGVLNVPVYYLTHDSPLPGWSRFVRETIRWAGPHDDGAMAFLREMAEKPGLKGCLLVPSGDGEVQLVSQHREELSALYKIILPEWTNLQWLCEKPLLYKRAAELGVSIPRTYALTSAADIDGLDVMFPVILKPHMGGGNTSIARAKVIRADDREELKAAFVDASGEIGPDNVVVQELIPGGGESQFSYAALWLNGEPIAEFTARRARQYPVDFGYTSTRVEVVDNRQAIEAARKILKSAGHSGLVEVEFKLDGRDGALKLLDVNPRPWSWFGLCSAAGINLGGLLWRVANEGHHHHHH | soluble |
| MNHQYQDLIDIFNQTFYADYNTKLELGGDEPIYLPADERVSYHRIIFARGFYASALHEIAHWCVAGPQRRLLEDFGYWYEPDGRTAQVQAEFEKVEIRPQAYEWILAISAGFPFTVSCDNLNGDFEPDRLAFMSKVHSEVLKILEQGLPQRVKMLSEALRAFYQTPALLPEHFVVK | not soluble |
| MGSDKIHHHHHHMYLKVFKEDVIDGLQKAANIIPAKTGAAYLRSIWLKAEAGMVHVLSTDSNIEFRGSYKAEVTEEGLAGVQGRAFVDLIRKLPAGEITLHLDPKTGTLGIEQGRRKYTLPTNDTAWFQNFSDYPESGSVFWSGDFLQELIDKLSFCISDEDTMEAIACMSMKPRQDNAIEACGLNGHQFAMQRFLNDDIHALLPAEGILVQKKYLMELKKWLGADEIELNIDNKRLFFRTGDKRETFSLPLSYYQYPDYTSFVSKLSTPDAGALEVNRKDMMAALDRVLIFNTDNNRCTYFDLEAGEVSLSSQGQEVGSASESLEGTYDGSLKRIAFPTRNLIEIMNHYQSDSMRFTLTGTEGPCGLTGENDPDYLVIVMPMKIVEETYYSEEEV | not soluble |
| MSLDVQSDIVAYDAPKKDLYEIGEMPPLGHVPKEMYAWAIRRERHGEPDQAMQIEVVETPSIDSHEVLVLVMAAGVNYNGIWAGLGVPVSPFDGHKQPYHIAGSDASGIVWAVGDKVKRWKVGDEVVIHCNQDDGDDEECNGGDPMFSPTQRIWGYETPDGSFAQFTRVQAQQLMKRPKHLTWEEAACYTLTLATAYRMLFGHKPHDLKPGQNVLVWGASGGLGSYAIQLINTAGANAIGVISEEDKRDFVMGLGAKGVINRKDFKCWGQLPKVNSPEYNEWLKEARKFGKAIWDITGKGINVDMVFEHPGEATFPVSSLVVKKGGMVVICAGTTGFNCTFDVRYMWMHQKRLQGSHFANLKQASAANQLMIERRLDPCMSEVFPWAEIPAAHTKMYRNQHKPGNMAVLVQAPRTGLRTFADVLEAGRKEGHHHHHH | soluble |
| MSLVMSGEKMKVIIVEDEFLAQQELSWLINTHSQMEIVGSFDDGLDVLKFLQHNKVDAIFLDINIPSLDGVLLAQNISQFAHKPFIVFITAWKEHAVEAFELEAFDYILKPYQESRIINMLQKLTTAWEQQNNAASGLASAAPRENDTINLIKDERIIVTSIHDIYYAEAHEKMTFVYTRRESFVMPMNITEEGHHHHHH | not soluble |
| MSLAIEKELLDQLLAGRDPSEVFGKDGLLDDLKKALSERILNAELDDHLDVERLEGGPANRRNGSSKKTVLTGTSKMTLTIPRDRAGTFDPKLIARYQRRFPDFDDKIISMYARGMTVREIQGHLEELYGIDVSPDLISAVTDTVLEAVGEWQNRPLELCYPLVFFDAIRVKIRDEGFVRNKAVYVALAVLADGSKEILGLWIEQTEGAKFWLRVMNELKNRGCQDILIAVVDGLKGFPEAITAVFPQTIVQTCIVHLIRHSLEFVSYKDRRTVVPALRAIYRARDAEAGLKALEAFEEGYWGQKYPAIAQSWRRNWEHVVPFFAFPEGVRRIIYTTNAIEALNSKLRRAVRSRGHFPGDEAAMKLLYLVLNNAAEQWKRAPREWVEAKTQFAVIFGERFFNEGHHHHHH | soluble |
| MVTSPPTSSPSQRSYSPQDWLRGYQSQPQEWDYWVEDVEGSIPPDLQGTLYRNGPGLLEIGDRPLKHPFDGDGMVTAFKFPGDGRVHFQSKFVRTQGYVEEQKAGKMIYRGVFGSQPAGGWLKTIFDLRLKNIANTNITYWGDRLLALWEGGQPHRLEPSNLATIGLDDLGGILAEGQPLSAHPRIDPASTFDGGQPCYVTFSIKSSLSSTLTLLELDPQGKLLRQKTETFPGFAFIHDFAITPHYAIFLQNNVTLNGLPYLFGLRGAGECVQFHPDKPAQIILVPRDGGEIKRIPVQAGFVFHHANAFEENGKIILDSICYNSLPQVDTDGDFRSTNFDNLDPGQLWRFTIDPAAATVEKQLMVSRCCEFPVVHPQQVGRPYRYVYMGAAHHSTGNAPLQAILKVDLESGTETLRSFAPHGFAGEPIFVPRPGGVAEDDGWLLCLIYKADLHRSELVILDAQDITAPAIATLKLKHHIPYPLHGSWAQT | soluble |
| NSGQSGAESDIRRKSEEIAAHSNEPSAEKPKEEKKWYDRIGIRGYTQFRYSSTVSGDKDAVSYWPDKSVGEDGSFLIRRARLVIFGDINDHLSLYIQPDFASTPSGSSTGHFAQLRDAYADIHFDKNKEFRVRVGQSKIPYSFENLQSSQNRLALDRNDAMNSCCRDERDIGAFFYWAPTHIRDRFKEVMAKNLKGSGDYGMFAFGIYNGQGANRLEGNNGVHMVTRFTYPHQFSNGQILEAGIQALRGRFVPSTGPAGGFTPVMDAPEKGFKDERVGVHAVLYPQPFGLQAEWNWGRGPQLNDGQTMLTESSLNGGYVLATYKIDGLRWGTLFPFVKWQHFKGGQKFERNAPRNHVNDLEFGLEWQVMKEIELTAVYHMMNRTNVASAPYERYKADVLRFQLQWNY | not soluble |
| MPLKGFEIIKSMITLLFLYQAIIRNFEEIVQFLGKIMGCGSSSPAEVAPAEIIEPSPSSDVPSDPKIPTSYRPSIISLQIPNEFGDDVSSDALSDRSDAQEENVDYLYATDVTLQWLLERIYDKFKKPIPEDPQWIIERLNRPSWDLDYATSSVVRVTFGWDDDELPRSVVLKTPVAKDQRDDEEGKYHYIMFKRECNVYEWTQKFPKLIAPKIIHIKKHSKEGSGVVVMEDVSEKGQEQDPVKGLMLEVVRDLLKQIAYLHSISLKHTSWSTLVADLPPSYYAHTIGSFDDTLTFFERQDVDHSRFVHIGKYFSDEYLHSTATETTELLDIPKVLVHGEPYASNVFTKMEGKEQRILSLIDWTEGHSGCFAEDVAKIICWNLNAKERVDNTSSLLEGYHFHLARYYDGDCPFTVDIIQRAYEVFVPFAMVSLCGKVMSVKNKTEKEPLIERAKSLIQQVYAMERLNES | not soluble |
| MLSLDQIPHHIRHGIVGSRLIQIRGRVTQVTGTLLKAVVPGVRIGELCYLRNPDNSLSLQAEVIGFAQHQALLIPLGEMYGISSNTEVSPTGTMHQVGVGEHLLGQVLDGLGQPFDGGHLPEPAAWYPVYQDAPAPMSRKLITTPLSLGIRVIDGLLTCGEGQRMGIFAAAGGGKSTLLASLIRSAEVDVTVLALIGERGREVREFIESDLGEEGLRKAVLVVATSDRPSMERAKAGFVATSIAEYFRDQGKRVLLLMDSVTRFARAQREIGLAAGEPPTRRGYPPSVFAALPRLMERAGQSSKGSITALYTVLVEGDDMTEPVADETRSILDGHIILSRKLAAANHYPAIDVLRSASRVMNQIVSKEHKTWAGDLRRLLAKYEEVELLLQIGEYQKGQDKEADQAIERMGAIRGWLCQGTHELSHFNETLNLLETLTQ | not soluble |
| MKILITGGAGFIGSAVVRHIIKNTQDTVVNIDKLTYAGNLESLSDISESNRYNFEHADICDSAEITRIFEQYQPDAVMHLAAESHVDRSITGPAAFIETNIVGTYALLEVARKYWSALGEDKKNNFRFHHISTDEVYGDLPHPDEVENSVTLPLFTETTAYAPSSPYSASKASSDHLVRAWRRTYGLPTIVTNCSNNYGPYHFPEKLIPLVILNALEGKPLPIYGKGDQIRDWLYVEDHARALHMVVTEGKAGETYNIGGHNEKKNLDVVFTICDLLDEIVPKATSYREQITYVADRPGHDRRYAIDAGKISRELGWKPLETFESGIRKTVEWYLANTQWVNNVKSGAYQSWIEQNYEGRQ | soluble |
| MGSHHHHHHMGQSVEVEILLNDAESRKRAEHKTEDGKKEKYFLFYDGETVSGKVSLSLKNPNKRLEHQGIKIEFIGQIELYYDRGNHHEFVSLVKDLARPGEITQSQAFDFEFTHVEKPYESYTGQNVKLRYFLRATISRRLNDVVKEMDIVVHTLSTYPELNSSIKMEVGIEDCLHIEFEYNKSKYHLKDVIVGKIYFLSVEIKIKHMEIDIIKRETTGTGPNVYHENDTIAKYEIMDGAPVRGSSIPIRLFLAGYELTPTMRDINKKFSVRYYLNLVLIDEEERRYFKQQEVVLWRKGDIVRKSMSHQAAIASQRFEGTTSLGEVRTPGQLSDNNSRQ | soluble |
